Experimental findings from the supplement of paper PMC5998384 are described below.

For data set [1], the system named is HeLa Kyoto. The data set can be described thus: melting temperature (median over replicates), in situ; higher = more thermally stable.
Data set [2] concerns HeLa Kyoto. Nature of the data set: thermal stability score vs G1/S (z-score of summed log2 fold changes over temperatures); higher = more thermally stable than in G1/S.
Data set [3] deals with HeLa Kyoto. Nature of the data set: solubility change mitosis vs G1/S (difference of NP-40 vs SDS log2 ratios) (log2 ratio difference); higher = more soluble in mitosis.
In data set [4] the test system is HeLa Kyoto. Nature of the data set: solubility in G1/S (NP-40 vs SDS abundance) (log2 ratio); higher = more soluble. The note with it: cell cycle stage: G1/S.
[5] abbreviates: cell cycle stage: early G1 (4.5 h after nocodazole release).
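For melting temperature (median over replicates), in situ in this document: HeLa Kyoto cells synchronized by double thymidine or nocodazole block, proteins quantified by TMT10plex mass spectrometry, three independent biological replicates.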
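For solubility change mitosis vs G1/S (difference of NP-40 vs SDS log2 ratios) in this document: synchronized HeLa Kyoto cells (double thymidine block for G1/S, nocodazole release for mitosis), protein amounts in NP-40 versus SDS lysates quantified by mass spectrometry, three biological replicates.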
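For solubility in G1/S (NP-40 vs SDS abundance) in this document: HeLa Kyoto cells arrested at G1/S by double thymidine block, proteins quantified by TMT10plex mass spectrometry in mild NP-40 versus SDS extracts, three biological replicates.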
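For thermal stability score vs G1/S (z-score of summed log2 fold changes over temperatures) in this document: synchronized HeLa Kyoto cells, proteins quantified by TMT10plex mass spectrometry, three biological replicates, mitosis taken 0.5 h after nocodazole release, G1/S directly after double thymidine block.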

For the sequence “MKKFFQEFKADIKFKSAGPGQKLKESVGEKAHKEKPNQPAPRPPRQGPTNEAQMAAAAALARLEQKQSRAWGPTSQDTIRNQVRKELQAEATVSGSPEAPGTNVVSEPREEGSAHLAVPGVYFTCPLTGATLRKDQRDACIKEAILLHFSTDPVAASIMKIYTFNKDQDRVKLGVDTIAKYLDNIHLHPEEEKYRKIKLQNKVFQERINCLEGTHEFFEAIGFQKVLLPAQDQEDPEEFYVLSETTLAQPQSLERHKEQLLAAEPVRAKLDRQRRVFQPSPLASQFELPGDFFNLTAEEIKREQRLRSEAVERLSVLRTKAMREKEEQRGLRKYNYTLLRVRLPDGCLLQGTFYARERLGAVYGFVREALQSDWLPFELLASGGQKLSEDENLALNECGLVPSALLTFSWDMAVLEDIKAAGAEPDSILKPELLSAIEKLL [UBXN6]”, in the data set on HeLa Kyoto [1] (cell cycle stage: mitosis), the melting temperature is 47.8 °C. The thermal stability score in the data set with HeLa Kyoto [2] (setting [5]) and with HeLa Kyoto [2] (cell cycle stage: mitosis) was 0.361 each time. Also, the “solubility change mitosis (log2)” value in the data set with HeLa Kyoto [3] was -0.0563. In the data set with HeLa Kyoto [4], the “solubility in G1/S (log2)” value turned out to be 0.337.

On to “MEQVEILRKFIQRVQAMKSPDHNGEDNFARDFMRLRRLSTKYRTEKIYPTATGEKEENVKKNRYKDILPFDHSRVKLTLKTPSQDSDYINANFIKGVYGPKAYVATQGPLANTVIDFWRMIWEYNVVIIVMACREFEMGRKKCERYWPLYGEDPITFAPFKISCEDEQARTDYFIRTLLLEFQNESRRLYQFHYVNWPDHDVPSSFDSILDMISLMRKYQEHEDVPICIHCSAGCGRTGAICAIDYTWNLLKAGKIPEEFNVFNLIQEMRTQRHSAVQTKEQYELVHRAIAQLFEKQLQLYEIHGAQKIADGVNEINTENMVSSIEPEKQDSPPPKPPRTRSCLVEGDAKEEILQPPEPHPVPPILTPSPPSAFPTVTTVWQDNDRYHPKPVLHMVSSEQHSADLNRNYSKSTELPGKNESTIEQIDKKLERNLSFEIKKVPLQEGPKSFDGNTLLNRGHAIKIKSASPCIADKISKPQELSSDLNVGDTSQNSCVDCSVTQSNKVSVTPPEESQNSDTPPRPDRLPLDEKGHVTWSFHGPENAIPIPDLSEGNSSDINYQTRKTVSLTPSPTTQVETPDLVDHDNTSPLFRTPLSFTNPLHSDDSDSDERNSDGAVTQNKTNISTASATVSAATSTESISTRKVLPMSIARHNIAGTTHSGAEKDVDVSEDSPPPLPERTPESFVLASEHNTPVRSEWSELQSQERSEQKKSEGLITSENEKCDHPAGGIHYEMCIECPPTFSDKREQISENPTEATDIGFGNRCGKPKGPRDPPSEWT [PTPN12]”, for which the results for the melting temperature in the data set on HeLa Kyoto [1] (cell cycle stage: G1/S) and with HeLa Kyoto [1] (cell cycle stage: mitosis) were 49.4 °C and 49.8 °C, respectively. Further, the figures for the thermal stability score in the data set on HeLa Kyoto [2] (setting [5]) and with HeLa Kyoto [2] (cell cycle stage: mitosis) were -0.24 and 0.678, respectively. Also, the “solubility change mitosis (log2)” value with HeLa Kyoto [3] was -0.242. Also, the “solubility in G1/S (log2)” value with HeLa Kyoto [4] amounted to 0.143.

For the sequence “MSFDPNLLHNNGHNGYPNGTSAALRETGVIEKLLTSYGFIQCSERQARLFFHCSQYNGNLQDLKVGDDVEFEVSSDRRTGKPIAVKLVKIKQEILPEERMNGQVVCAVPHNLESKSPAAPGQSPTGSVCYERNGEVFYLTYTPEDVEGNVQLETGDKINFVIDNNKHTGAVSARNIMLLKKKQARCQGVVCAMKEAFGFIERGDVVKEIFFHYSEFKGDLETLQPGDDVEFTIKDRNGKEVATDVRLLPQGTVIFEDISIEHFEGTVTKVIPKVPSKNQNDPLPGRIKVDFVIPKELPFGDKDTKSKVTLLEGDHVRFNISTDRRDKLERATNIEVLSNTFQFTNEAREMGVIAAMRDGFGFIKCVDRDVRMFFHFSEILDGNQLHIADEVEFTVVPDMLSAQRNHAIRIKKLPKGTVSFHSHSDHRFLGTVEKEATFSNPKTTSPNKGKEKEAEDGIIAYDDCGVKLTIAFQAKDVEGSTSPQIGDKVEFSISDKQRPGQQVATCVRLLGRNSNSKRLLGYVATLKDNFGFIETANHDKEIFFHYSEFSGDVDSLELGDMVEYSLSKGKGNKVSAEKVNKTHSVNGITEEADPTIYSGKVIRPLRSVDPTQTEYQGMIEIVEEGDMKGEVYPFGIVGMANKGDCLQKGESVKFQLCVLGQNAQTMAYNITPLRRATVECVKDQFGFINYEVGDSKKLFFHVKEVQDGIELQAGDEVEFSVILNQRTGKCSACNVWRVCEGPKAVAAPRPDRLVNRLKNITLDDASAPRLMVLRQPRGPDNSMGFGAERKIRQAGVID [CSDE1]”, the melting temperature with HeLa Kyoto [1] (cell cycle stage: G1/S) came to 47.6 °C; in the data set with HeLa Kyoto [1] (cell cycle stage: mitosis), 48.4 °C. The thermal stability score with HeLa Kyoto [2] (setting [5]) was determined as 1.75; in the data set on HeLa Kyoto [2] (cell cycle stage: mitosis), 4.08. Further, in the data set with HeLa Kyoto [3], the “solubility change mitosis (log2)” value was -0.111. For the same sequence, the “solubility in G1/S (log2)” value with HeLa Kyoto [4] was -0.15.

In the case of “MSFRKVNIIILVLAVALFLLVLHHNFLSLSSLLRNEVTDSGIVGPQPIDFVPNALRHAVDGRQEEIPVVIAASEDRLGGAIAAINSIQHNTRSNVIFYIVTLNNTADHLRSWLNSDSLKSIRYKIVNFDPKLLEGKVKEDPDQGESMKPLTFARFYLPILVPSAKKAIYMDDDVIVQGDILALYNTALKPGHAAAFSEDCDSASTKVVIRGAGNQYNYIGYLDYKKERIRKLSMKASTCSFNPGVFVANLTEWKRQNITNQLEKWMKLNVEEGLYSRTLAGSITTPPLLIVFYQQHSTIDPMWNVRHLGSSAGKRYSPQFVKAAKLLHWNGHLKPWGRTASYTDVWEKWYIPDPTGKFNLIRRYTEISNIK [GLT8D1]”, the melting temperature with HeLa Kyoto [1] (cell cycle stage: G1/S) and in the data set with HeLa Kyoto [1] (cell cycle stage: mitosis) was 53 °C throughout. Also, the thermal stability score in the data set on HeLa Kyoto [2] (setting [5]) is 3.31; in the data set on HeLa Kyoto [2] (cell cycle stage: mitosis) it was 5.82. The “solubility change mitosis (log2)” value in the data set on HeLa Kyoto [3] is 0.024. The “solubility in G1/S (log2)” value in the data set on HeLa Kyoto [4] was determined as 0.144.

With “MNAARTGYRVFSANSTAACTELAKRITERLGAELGKSVVYQETNGETRVEIKESVRGQDIFIIQTIPRDVNTAVMELLIMAYALKTACARNIIGVIPYFPYSKQSKMRKRGSIVCKLLASMLAKAGLTHIITMDLHQKEIQGFFSFPVDNLRASPFLLQYIQEEIPNYRNAVIVAKSPDAAKRAQSYAERLRLGLAVIHGEAQCTELDMDDGRHSPPMVKNATVHPGLELPLMMAKEKPPITVVGDVGGRIAIIVDDIIDDVESFVAAAEILKERGAYKIYVMATHGILSAEAPRLIEESSVDEVVVTNTVPHEVQKLQCPKIKTVDISLILSEAIRRIHNGESMAYLFRNITVDD [PRPSAP1]”, the melting temperature in the data set on HeLa Kyoto [1] (cell cycle stage: G1/S) turned out to be 55.6 °C; in the data set with HeLa Kyoto [1] (cell cycle stage: mitosis), 54.6 °C. The thermal stability score was -0.299 with HeLa Kyoto [2] (setting [5]) and -2.79 with HeLa Kyoto [2] (cell cycle stage: mitosis). The “solubility change mitosis (log2)” value in the data set on HeLa Kyoto [3] is -0.211. For the same sequence, the “solubility in G1/S (log2)” value with HeLa Kyoto [4] was 0.0529.
